Data on nine substances can be found in patent publication US11505576B2, “Polypeptides based on a scaffold” (AFFIBODY AB, priority 2018, dated 2022).

One series addresses T1, IL-6 (Homo sapiens, UniProt P05231).
T1 construct: purchased R&D Systems 206-IL-200/CF
Kind of series: Kinetic analysis using surface plasmon resonance (Biacore T200), immobilized IL-6. The settings on record: MGSSHHHHHHGSS-[Y#####]-A. The class given is binding. As for the experimental part:
Kinetic constants (ka and kd) and affinities (KD) were determined for His6-tagged Y variants using a Biacore T200 instrument (GE Healthcare). Target proteins C4, IL-6 and insulin, respectively, were immobilized in separate flow cells on the carboxylated dextran layer of different CM5 chip surfaces (GE Healthcare). Immobilization was performed using amine coupling chemistry according to the manufacturer's protocol and PBS pH 7.4 supplemented with 0.1 Tween20 (PBST 0.1%) as running buffer. The ligand immobilization levels on the surfaces were 3280-8830 RU for C4, 495-1184 RU for IL-6, and 270-282 RU for insulin. One flow cell surface on each chip was activated and deactivated for use as blank during analyte injections. In the kinetic experiment, PBST 0.1% was used as running buffer at a flow rate of 30 μl/min. The analytes, i.e. Y variants, were each diluted in PBST 0.1 buffer at concentrations of 1000, 500, 100, 50 and 10 nM and injected for 5 min, followed by dissociation in running buffer for 3 min. After dissociation, the surfaces were regenerated with one injection of 30 μl 10 mM HCl. Kinetic constants were calculated from the sensorgrams using the Langmuir 1:1 model of Biacore T200 Evaluation software 2.0 (GE Healthcare).
Produced Y variants were subjected to CD and SPR analyses according to the methods described in Example 1.
Produced Y variants were subjected to CD and SPR analyses according to the methods described in Example 1. In addition, CD spectra of selected IL-6 binding variants were also recorded at 60, 70, 80 and 90° C.
The Y variants were cloned, produced and characterized according to the general methods described in Example 1. Produced Y variants with point mutations were subjected to CD and SPR analyses as described in Example 1. In addition, CD spectra of the IL-6 binding variants were also recorded at 60, 70, 80 and 90° C.
(In SPR one partner is held on a chip, and binding of the other changes the refractive index at the surface.)

A short description of series [1]: Fraction of soluble product on expression in E. coli, estimated from SDS-PAGE. The class given is physicochemical. The following applies: MGSSHHHHHHGSS-[Y#####]-A; for Estimated soluble fraction: Table 7, Ylib002Naive.I selection; for Est soluble fraction: Table 9, mutation study 5. As for the experimental part:
E. coli T7E2 cells were transformed with plasmids containing the gene fragment of each respective Y variant. The resulting recombinant strains were generally cultivated in media supplemented with 50 μg/ml kanamycin at 30-37° C. in 50 ml scale using the EnPresso protocol (Enpresso GmbH). In order to induce protein expression, isopropyl-β-D-1-thiogalactopyranoside (IPTG) was added to a final concentration of 0.5 mM at an optical density at 600 nm (OD600) of approximately 10. After induction, the cultures were incubated for 16 h. The cells were harvested by centrifugation. Alternatively, the culture was performed at 37° C. in 980 ml of TSB-YE medium (tryptic soy broth 30 g/l supplemented with yeast extract 5 g/l) supplemented with 50 μg/ml kanamycin, and protein expression induced with 0.2 mM IPTG at OD600=2, followed by incubation for 5 h before harvesting of the cells by centrifugation. The total yield as well as the fraction of soluble and insoluble product of the respective Y variant was estimated based on SDS-PAGE analysis.

T1 sequence (P05231 30-212): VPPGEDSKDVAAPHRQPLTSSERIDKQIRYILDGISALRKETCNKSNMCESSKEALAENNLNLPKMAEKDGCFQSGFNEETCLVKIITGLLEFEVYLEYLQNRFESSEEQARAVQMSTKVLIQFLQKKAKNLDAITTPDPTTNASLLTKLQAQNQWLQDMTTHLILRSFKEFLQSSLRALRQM

As to “Y02465: IL-6 binding Y variant from Ylib002Naive.I, SEQ ID NO:78 (LAEAKEAAIAELDSKGVGANHIKAIQHAQFVEIVQLLKQAILAVLPA; Engineered IL-6 binding Y variant)”, in the series with IL-6 (Table 7), the Kd stood at 270 nM, the ka worked out at 7500 M⁻¹ s⁻¹ and the kd is 0.0021 s⁻¹. Moreover, the Estimated soluble fraction in series [1] is reported as 100%.

In the series with IL-6 (Table 7), “Y02495: IL-6 binding Y variant from Ylib002Naive.I, SEQ ID NO:79 (LAEAKEAAIAELDSKGVGAEEIKEIQGAMLVEIVQLLKQAILAVLPA; Engineered IL-6 binding Y variant)” registered a Kd of 240 nM, a ka of 7100 M⁻¹ s⁻¹ and a kd of 0.0017 s⁻¹. Moreover, the Estimated soluble fraction in series [1] is 100%.

In the case of “Y02697: IL-6 binding Y variant, Y02444 with I9L, SEQ ID NO:81 (LAEAKEAALAELDSKGVGAVEIKQIQEALLVEIVQLLKQAILAVLPA; Engineered IL-6 binding Y variant)”, in the series with IL-6 (Table 9, mutation study 5), the affinity, expressed as Kd, was 150 nM; the ka came to 50000 M⁻¹ s⁻¹; the kd was found to be 0.009 s⁻¹. The Est soluble fraction in series [1] is on record as 100%.

In the series with IL-6 (Table 9, mutation study 5), “Y02698: IL-6 binding Y variant, Y02444 with K15Y, SEQ ID NO:82 (LAEAKEAAIAELDSYGVGAVEIKQIQEALLVEIVQLLKQAILAVLPA; Engineered IL-6 binding Y variant)” yielded a Kd of 120 nM, a ka of 28000 M⁻¹ s⁻¹ and a kd of 0.0033 s⁻¹. Further, in series [1], the Est soluble fraction is reported as 100%.

In the series with IL-6 (Table 9, mutation study 5), “Y02699: IL-6 binding Y variant, Y02444 with Q26E, SEQ ID NO:83 (LAEAKEAAIAELDSKGVGAVEIKQIEEALLVEIVQLLKQAILAVLPA; Engineered IL-6 binding Y variant)” displayed a Kd of 200 nM, a ka of 19000 M⁻¹ s⁻¹ and a kd of 0.0029 s⁻¹. The Est soluble fraction in series [1] is 100%.

Regarding “Y02700: IL-6 binding Y variant, Y02415 with I9L, SEQ ID NO:84 (LAEAKEAALAELDSKGVGAGDIKDIQDALLVEIVQLLKQAILAVLPA; Engineered IL-6 binding Y variant)”, in the series with IL-6 (Table 9, mutation study 5), the dissociation constant Kd worked out at 62 nM, the ka amounted to 46000 M⁻¹ s⁻¹ and the kd worked out at 0.0025 s⁻¹. For the same substance, the Est soluble fraction in series [1] was 100%.

Turning to “Y02701: IL-6 binding Y variant, Y02415 with K15Y, SEQ ID NO:85 (LAEAKEAAIAELDSYGVGAGDIKDIQDALLVEIVQLLKQAILAVLPA; Engineered IL-6 binding Y variant)”, in the series with IL-6 (Table 9, mutation study 5), the Kd turned out to be 210 nM, the ka is 21000 M⁻¹ s⁻¹ and the kd was found to be 0.0036 s⁻¹. In series [1], the Est soluble fraction is on record as 100%.

In the series with IL-6 (Table 9, mutation study 5), “Y02702: IL-6 binding Y variant, Y02415 with Q26E, SEQ ID NO:86 (LAEAKEAAIAELDSKGVGAGDIKDIEDALLVEIVQLLKQAILAVLPA; Engineered IL-6 binding Y variant)” gave a Kd of 440 nM, a ka of 16000 M⁻¹ s⁻¹ and a kd of 0.007 s⁻¹. In addition, in series [1], the Est soluble fraction is 100%.

Consider “Y02703: IL-6 binding Y variant, Y02444 with K15Y Q26E, SEQ ID NO:87 (LAEAKEAAIAELDSYGVGAVEIKQIEEALLVEIVQLLKQAILAVLPA; Engineered IL-6 binding Y variant)”, for which, in the series with IL-6 (Table 9, mutation study 5), the Kd was 120 nM, the ka is 21000 M⁻¹ s⁻¹ and the kd is 0.0025 s⁻¹. Besides, the Est soluble fraction in series [1] is reported as 100%.

For orientation: Kd means the concentration at which binding is half-saturated. Lower therefore signals higher affinity.
